For this test, the target named is rabbit anti-CS198 peptide antiserum raised against the unconjugated peptide of SEQUENCE ID NO 44 (13 week bleed). Nature of the test: Western blot competition: antiserum pre-incubated overnight at 4 C with varying concentrations of peptide immunogen before exposure to the filter carrying the 45 kD band. Background: A western blot detects proteins with antibodies after separation by electrophoresis.

B1: CS198 synthetic peptide of SEQUENCE ID NO 44 (peptide)
peptide: RLQKSQSSDLLERERESVLRREQEVAEERRN
B1 had a concentration of peptide at which antibody binding to the band was inhibited of 2.6 µM.

The values are drawn from patent publication US7087393.
